T1: human GPRC5D amino-terminal peptide MYKDCIESTGDYFLLCDAEGPWGIILE-K(Biotin)-NH2, having an intramolecular … (human, C-terminal lysine carrying biotin, C-terminal amide; intramolecularly formed disulfide bond)
T1 construct: Peptide Institute synthetic peptide; also called amino-terminal peptide of biotinylated human GPRC5D (disulfide bond present)
T1 peptide: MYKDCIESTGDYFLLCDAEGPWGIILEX


How the values were obtained:
human GPRC5D [1] = biological target: T2, human GPRC5D (human, UniProt Q9NZD1 1-345); assay: flow cytometry on A4/Fuk cells (endogenous human GPRC5D), Penta-His Alexa Fluor 488 detection, rMFI = MFI minus sample without antibody
T2 construct: whole, on cells; also called hGPRC5D; G-protein coupled receptor family C group 5 member D
Experimental: Lymphoma cell line A4/Fuk cells (JCRB Cell Bank) were adjusted to an appropriate concentration with PBS containing 5% FBS. LIVE/DEAD Fixable Near-IR Dead Cell Stain Kit was added to the cells, which were then left standing at 4° C. for 30 minutes. The cells were washed twice with PBS containing 5% FBS, then adjusted to a concentration of 1×10⁶ cells/mL with PBS containing 5% FBS, inoculated in an amount of 100 μL/well to a 96-well U-bottomed microplate, and centrifuged to remove a supernatant. Each anti-GPRC5D-anti-CD3 bispecific molecule (C2037-C3E7034 to C3022-C3E7036 prepared in Example 12) diluted with PBS containing 5% FBS were added thereto in an amount of 100 μL/well, and the plate was left standing at 4° C. for 60 minutes. The cells were washed twice with PBS containing 5% FBS. Then, Penta-His Alexa Fluor 488 diluted with PBS containing 5% FBS was added thereto in an amount of 30 μL/well, and the plate was left standing at 4° C. for 30 minutes. The cells were washed twice with PBS containing 5% FBS and then resuspended in PBS containing 5% FBS, followed by detection using a flow cytometer (FACSCanto™ II). The data was analyzed using Flowjo. The mean fluorescence intensity (MFI) of Alexa Fluor 488 in a fraction free from dead cells was calculated. The MFI value of the antibody-unsupplemented sample was subtracted from the MFI value of the antibody-supplemented sample to calculate a relative value of MFI (rMFI).

[2] = biological target: T1, human GPRC5D amino-terminal peptide …; assay: SPR (Biacore T200), kinetic analysis: biotinylated amino-terminal peptide of human GPRC5D on Sensor Chip CAP, scFv as analyte
Experimental: The binding activity of the anti-GPRC5D antibodies against the amino-terminal peptide of human GPRC5D was tested by SPR using Biacore T200. The amino-terminal peptide of biotinylated human GPRC5D diluted to 2 nM with HBS-EP+ (manufactured by GE Healthcare Bio-Sciences Corp.) was immobilized on Sensor Chip CAP (manufactured by GE Healthcare Bio-Sciences Corp.) by contact at a rate of 10 μL/min for 180 seconds. Then, Kd was calculated by kinetic analysis using a plurality of concentrations of each scFv diluted with HBS-EP+ as analytes.

human GPRC5D [3] = biological target: T2, human GPRC5D; assay: flow cytometry on KHM-1B cells (human GPRC5D), culture supernatant, PE anti-human IgG Fc, rMFI over human IgG isotype control
Experimental: Human multiple myeloma cell line KHM-1B cells expressing GPRC5D were adjusted to a concentration of 2×10⁶ cells/mL with PBS containing 5% FBS, inoculated in an amount of 100 μL/well to a 96-well U-bottomed microplate, and centrifuged to remove a supernatant. The culture supernatant of each humanized anti-GPRC5D antibody obtained in Example 8)-3-1 or Human IgG isotype control antibody (Calbiochem/Merck Millipore Corp.) adjusted to 14 ng/mL to 30 μg/mL was added thereto in an amount of 100 μL/well, and the plate was left standing at 4° C. for 1 hour. The cells were washed twice with PBS containing 5% FBS. Then, R-Phycoerythrin AffiniPure F(ab′)2 Fragment Goat Anti-Human IgG, Fcγ Fragment Specific (Jackson ImmunoResearch Laboratories, Inc.) diluted 100-fold with PBS containing 5% FBS was added thereto in an amount of 100 μL/well, and the plate was left standing at 4° C. for 1 hour. The cells were washed twice with PBS containing 5% FBS and then resuspended in PBS containing 5% FBS, followed by detection using a flow cytometer (FACSCanto™ II; Becton, Dickinson and Company). The data was analyzed using Flowjo (Tree Star, Inc.). The PE fluorescence intensity of the cell fraction was plotted to a histogram, and the mean fluorescence intensity (MFI) was calculated. The MFI value of the control antibody was subtracted from the MFI value of the GPRC5D antibody to calculate a relative value of MFI (rMFI).

cynomolgus monkey GPRC5D = biological target: T3, cynomolgus monkey GPRC5D (cynomolgus monkey); assay: flow cytometry on KMS-11_cGPRC5D cells (cynomolgus monkey GPRC5D), PE anti-human IgG Fc detection, rMFI = MFI minus isotype control
T3 construct: whole, on cells; Stably expressed on KMS-11 cells (KMS-11_cGPRC5D); also called cGPRC5D

T2 sequence (Q9NZD1 whole entry): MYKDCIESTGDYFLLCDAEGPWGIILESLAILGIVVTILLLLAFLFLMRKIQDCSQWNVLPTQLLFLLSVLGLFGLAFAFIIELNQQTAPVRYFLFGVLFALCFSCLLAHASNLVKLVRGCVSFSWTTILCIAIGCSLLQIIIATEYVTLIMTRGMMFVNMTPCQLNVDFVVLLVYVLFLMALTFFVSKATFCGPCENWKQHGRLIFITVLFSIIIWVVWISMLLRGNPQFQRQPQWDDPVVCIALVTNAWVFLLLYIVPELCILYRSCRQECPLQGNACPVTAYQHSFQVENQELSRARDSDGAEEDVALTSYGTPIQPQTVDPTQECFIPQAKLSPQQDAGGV

binding result (human GPRC5D [1])	Kd [2]	binding result (human GPRC5D [3])	EC50 (read off the curve) (cynomolgus monkey GPRC5D)	Binder
binds	–	–	–	anti-GPRC5D-anti-CD3 bispecific molecule C3048-C3E7036 (bispecific antibody, Tandem scFv) scFv: GQVQLVQSGAEVKKPGSSVKVSCKASGGTFSRYAISWVRQAPGQGLEWMGGIIPIFGTANYAQKFQGRVTITADQSTRTAYMDLGRLRSEDTAVYYCALEGFRDSLKRNPFDIWGQGTMVTVSSGGGGSGGGGSGGGGSQSVVTQPPSVSAAPGQKVTISCSGGTTNIGSNYVSWYQQLPGTAPKFLMYENNKRPSGIPDRFSGSKSGTSATLAITGLQTGDEATYYCSTWDSSLNTGLFGGGTKLTVLGGGGSEVQLVESGGGLVQPGGSLRLSCAASGVTFNYYGMSWIRQAPGKGLEWVASITNSGGRIYYPDSVKGRFTISRENTQKTLYLQMNSLRAEDTAVYYCTLDGRDGWVAYWGQGTLVTVSSGGGGSGGGGSGGGGSNFMLTQPSSVSGVPGQRVTISCTGNTGNIGSNYVNWYQQLPGTAPKLLIYRDDKRPSGVPDRFSGSKSGTSASLAITGFQAEDEADYYCQSYSSGFIFGGGTKLTVLGAAAGAGGDYKDDDDKGAAAHHHHHH
–	0.0032 nM	–	–	E1018 scFv (high binding mutant of C3022) (scFv) QVQLVQSGAEVKKPGASVKVSCKASGYTFTGYYMHWVRQAPGQGLEWMGRINPNSGGTNYAQKFQGRVTMTRDTSISTAYMELSGLRSDDTAVYYCKSGSVRPPWGQGTLVTVSSGGGGSGGGGSGGGGSQPVLTQPPSASGTPGQRVTISCSGSRSNIGGNIVSWYQQFPGTAPRLLTYRNTRRPSGVPDRFSGSKSGTSASLAISGLQSEDEADYYCAAWDDSLGGVVFGGGTKLTVL
binds	–	–	–	anti-GPRC5D-anti-CD3 bispecific molecule C3022-C3E7036 (bispecific antibody, Tandem scFv) scFv: GQVQLVQSGAEVKKPGASVKVSCKASGYTFTGYYMHWVRQAPGQGLEWMGRINPNSGGTNYAQKFQGRVTMTRDTSISTAYMELSGLRSDDTAVYYCASGSVRHPWGQGTLVTVSSGGGGSGGGGSGGGGSQPVLTQPPSASGTPGQRVTISCSGSRSNIGGNIVSWYQQFPGTAPRLLTYADNQRPSGVPDRFSGSKSGTSASLAISGLQSEDEADYYCAAWDDSLNGVVFGGGTKLTVLGGGGSEVQLVESGGGLVQPGGSLRLSCAASGVTFNYYGMSWIRQAPGKGLEWVASITNSGGRIYYPDSVKGRFTISRENTQKTLYLQMNSLRAEDTAVYYCTLDGRDGWVAYWGQGTLVTVSSGGGGSGGGGSGGGGSNFMLTQPSSVSGVPGQRVTISCTGNTGNIGSNYVNWYQQLPGTAPKLLIYRDDKRPSGVPDRFSGSKSGTSASLAITGFQAEDEADYYCQSYSSGFIFGGGTKLTVLGAAAGAGGDYKDDDDKGAAAHHHHHH
–	–	binds	~2 nM	humanized anti-GPRC5D antibody h7B4_H3/L2 (antibody, human IgG1, kappa, Human IgG1 / kappa) heavy: not shown light: DIQMTQSPSSLSLSPGERATLSCKASQNINKYLDWYQQKPGQPPRLLIYNTNNLHTGIPDRFSGSGSGTDYTLTISRLEPEDFAVYYCLQRNSWYTFGQGTKVEIKRTVAAPSVFIFPPSDEQLKSGTASVVCLLNNFYPREAKVQWKVDNALQSGNSQESVTEQDSKDSTYSLSSTLTLSKADYEKHKVYACEVTHQGLSSPVTKSFNRGEC
–	–	binds	~3 nM	humanized anti-GPRC5D antibody h7B4_H1/L2 (antibody, human IgG1, kappa, Human IgG1 / kappa) heavy: not shown light: DIQMTQSPSSLSLSPGERATLSCKASQNINKYLDWYQQKPGQPPRLLIYNTNNLHTGIPDRFSGSGSGTDYTLTISRLEPEDFAVYYCLQRNSWYTFGQGTKVEIKRTVAAPSVFIFPPSDEQLKSGTASVVCLLNNFYPREAKVQWKVDNALQSGNSQESVTEQDSKDSTYSLSSTLTLSKADYEKHKVYACEVTHQGLSSPVTKSFNRGEC
–	–	binds	~2 nM	humanized anti-GPRC5D antibody h7B4_H5/L1 (antibody, human IgG1, kappa, V domains shown, Human IgG1 / kappa) VH: EIQLQESGPGLVKPSQTLSLTCTVSGYTITSGYDWSWIRKPPGNKMEWIAYMSYRGSTNYNPSLKSRVTISRDTSKNQFSLKLSSVTAADTAVYYCALTRTYWYNYYYVLDAWGQGTLVTVSS VL: EIVLTQSPGTLSLSPGERATLSCKASQNINKYLDWYQQKPGQPPRLLIYNTNNLHTGIPDRFSGSGSGTDYTLTISRLEPEDFAVYYCLQRNSWYTFGQGTKVEIKR
–	–	binds	~2 nM	humanized anti-GPRC5D antibody h7B4_H3/L1 (antibody, human IgG1, kappa, Human IgG1 / kappa) heavy: not shown light: EIVLTQSPGTLSLSPGERATLSCKASQNINKYLDWYQQKPGQPPRLLIYNTNNLHTGIPDRFSGSGSGTDYTLTISRLEPEDFAVYYCLQRNSWYTFGQGTKVEIKRTVAAPSVFIFPPSDEQLKSGTASVVCLLNNFYPREAKVQWKVDNALQSGNSQESVTEQDSKDSTYSLSSTLTLSKADYEKHKVYACEVTHQGLSSPVTKSFNRGEC
–	–	binds	~2 nM	humanized anti-GPRC5D antibody h7B4_H2/L2 (antibody, human IgG1, kappa, V domains shown, Human IgG1 / kappa) VH: EIQLQESGPGLVKPSQTLSLTCTVSGYTITSGYDWSWIRQPPGKGLEWIGYMSYRGSTNYNPSLKSRVTISRDTSKNQFSLKLSSVTAADTAVYYCALTRTYWYNYYYVLDAWGQGTLVTVSS VL: DIQMTQSPSSLSLSPGERATLSCKASQNINKYLDWYQQKPGQPPRLLIYNTNNLHTGIPDRFSGSGSGTDYTLTISRLEPEDFAVYYCLQRNSWYTFGQGTKVEIKR

— US20190367612A1 (Daiichi Sankyo, published 2019)
